Laboratory results as given in the supplement of paper PMC12636428.

Test system: Saccharomyces cerevisiae
Test: transcriptional activation domain activity (GFP:mCherry ratio, weighted mean of sorted bins, harmonized to initial dataset scale) (arbitrary fluorescence ratio units); higher = stronger transcriptional activation
Settings: beta-estradiol 1 µM; induction time 4 h
Summary of the method: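 For this assay, yeast diploids with a GFP reporter carried barcoded protein tiles at URA3, each fused to an estradiol-inducible synthetic transcription factor. Induction was a 1:5 dilution into SC with 1 uM beta-estradiol for 4 hours at 30 °C, followed by sorting into 8 bins by GFP:mCherry ratio and barcode sequencing. Tiles under 50 reads were dropped, and activation activity was calculated as the read-weighted mean of bin median fluorescence, averaged across barcodes and linearly mapped onto the initial dataset scale.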

| Sequence | transcriptional activation domain activity |
| --- | --- |
| MHFFSFFFLCFYFYFLSSLLGSMDYTALYFPFFFCSNYRRCYMCFLVEPFFFL | 78500 |
| MHFLNFLFYCVYYLPLNHTIFFYFVWLTLTLLFFFFLVVYIHISSISSFFYIC | 56600 |
| MHFVWLYHPFAKYGDFYLILSFTYLRTITDCCSCCIMTTYGMLRIFPIFVILV | 79100 |
| MHGTGVFFGCLGIHIFFFLSSLLFHVDIFVIRDIFFNFLLFFFIFFLRILYSM | 42700 |
| MHHELLRPILRLGHLMWTICFWMRRIMINAESPYRKTILHVRRSNWLFRRIIT | 81600 |
| MHILFLSLFFCFTLRFSLILLFGVIWLVKAFKYCHLVYWKLITYFNLLIFALY | 54800 |
| MHILVELAVFLICRCSQIWRTWVQGGKLAISHNKLVRPTFFRRLLHCIWLFRL | 72200 |
| MHITCPRLWGHCSWCVVLPFIFHTFLYCIPTFCCFLVHISAILFIGFSFLGSL | 55600 |
| MHIVVTLCYFMTYLKPRRKDIYQRVQRWLPKIWTKFWQEIKRNDSFSYVFVDK | 49500 |
| MHKCCLLDFLMLSTNYADVFYFHKLCIILTSFFSRLNPLLSIGLNLLLFCLLI | 57000 |
| MHKHFVVTLIMFFYFFFLFLLRGRCWNCTPLPTLIPSTASGVLLIVFLSYVVH | 26400 |
| MHLLTFTIPSYRAVCKVFPFLFWLSLFLTHWFVYSFSFLQAFFSFCFTWAWCV | 69900 |
| MHLQGFVAWMFYILNCLAFSLRIISHWIFPIYLIWGIGLVENDYSSIDSWFLL | 42100 |
| MHNSRSSFLVSCFFIYFFSLLVHCEGVLILTPIPFQNHLVSILECFLFYLFLF | 51600 |
| MHPCTLLSFRVFAYFYLLLIPPPPLLYSYLSYTNIYSYIIVLLLLLLFYVTIV | 54800 |
| MHPFSPHCLSLSLLLKFSQLFNISFFLLVMHFLWLDILGFFFILFPNHFPMFG | 43800 |
| MHPILSCLVSIVCPIMHILLLAVLLFLNTLSRLILAFTYTTFSLFVFSVQLTP | 71500 |
| MHPPTHYRLLSPPLFPYIFFFQVGFLLRFFSLFFSLVSLVLILCVTFFFFFFG | 57500 |
| MHRATNYYFSFSALLYLVFIFLRCSLALGLFFCFMFLSFEFFCFLMVLCLFCI | 33200 |
| MHRELTGYFFSFFFFLFFFSFFIHISRLAVYIWDWVTSLHFFIFVILNILGSS | 66700 |
| MHRLHYLMCIIIGVRLTAVVGLGRHRVVYVYCFCFSDTSRKMVRQDGIKLFTA | 43200 |
| MHRPVCSGQSPPFFSPTSPIHFILPFLFSIFSFPHGAGVSMHIGRLVLLFFFF | 59300 |
| MHSDMYLHPTLLSFLSVQFSMGFLFFLCRRYLYFSEWLLVVLCVFVSRFIGFI | 38400 |
| MHSGPSFSCFFSVFPSFIFGLSTSSTLYIYFFFLLLDQLFVPSFFALLLLFLP | 41400 |
| MHSMRHAPSSFFLLFRPVIVFMAVVFSNFYLLPLLFSLLYVILCFFLYILFVS | 34600 |
| MHSPHNCRVSKHFVIFCFFFFFFLFCRPLPLLSNLILTLFFSSFFLLGLFGVL | 64700 |
| MHSSGWLWANISLLFPRLFFLTFFSYLLCDLAFRFDRLVCFLWLLFFQWSFII | 52200 |
| MHSVTAALRSLSLAGRRSLSTSAPRWEQAAAEAVASTSTWTPQTQRTGVLARK | 14900 |

| Sequence | transcriptional activation domain activity |
| --- | --- |
| MHTHAVTRSLFLYFLLNFFFIFFLLLEGFGLLLDFSFFFVLFRLDSLSLLFVF | 76000 |
| MHTLLTILQTLHILVIFNTIVYPVCLFEICCFAWYFIPFAFRFLCLCFFFLFL | 55000 |
| MHTLVLDFDEDVVEQALRLFNLNSRALTTFLSLLVMEYGIALGPMRHRWITSP | 18100 |
| MHTPFLFLPPCPSRTRLLLFFSLILFLLVLVPAPCHAQPWNLGTLFFIFWLAS | 52700 |
| MHTSRAAWIHSKPADKAEAVAPHPHIAESGVGHSSHVGTHPKLSGDPNSPWRE | 45900 |
| MHVAYFMVLFFFIVLIDAHLVVPYIFDVELLTYMLNDAFKFDLFGCFCKVIVI | 68900 |
| MHVYVYIIIYNNIWYCMVYSINIHIFVNNYYLLRLLAIYYSYCFIVLLFIMFF | 43500 |
| MHYIGGYLVLFYFFLFLFFFYFFFFSPFFYFLPFLFFLFFSIPYFFFFAPFVS | 39700 |
| MHYLGLFRALDYNASSLIGVVNIDYTTVIYLIIEELIILLLTLAKRNVATQYA | 61800 |
| MHYRSAILCHSFILYCLVVVLGVFFKVILVLIYNRVCVPLIVLCLFSYSLSLV | 59100 |
| MHYRYIAGFFFVHTFSCGQGLKDSNLILQCVPLYPQLHPFFLIFLHFFVFLSL | 70600 |
| MHYTTLLYFIYISFNFFTLILILFFNPFFFVSILSFSFLLFLFCCCSISEVVV | 64300 |
| MHYVFLPFFFFFLLFFLLFPLFFFFLPSFHLLLFLSSSLLLSFLSLAPATSHH | 38800 |
| MIASHPSPFLSRLFGLPLLFFSSFIEVSLFFLFFLPSLRFLFFFFPSLALFFF | 42700 |
| MIASSPGGILCGILLFLLFFLLPCDLPLPFVSCFFSLFSPFLMFLFFLPYFFS | 40700 |
| MIAVFFYYFLLFFYITCEFPVLCCGSLFFFFFFFFCFCDIYCISFCLLAHYHY | 44300 |
| MICCDLSFGGKLFCKQLFLLLLVFCAILHYNWRWVYSDVLVMILMLAMIISLA | 43600 |
| MIDILFFVLFHFFDVLFFSLFCLFLCIILFSSLTFLIYYFFFFFLFFPFFGLF | 36500 |
| MIELCLWVFSLLVLPRFGLRNFEVRINVALRELLLTITWGRLAIHVSLLRLVV | 49000 |
| MIEMMAFRIALGFVGGLGLDGVWCGFFFPFKFVVFSFLHTLSISLGLDFFFLL | 91700 |
| MIERCLMMGPSLGLYVFDLFLLEVGYLAFYAHFNLFSMFAYVFPFIPLVGIRC | 41500 |
| MIFFLLFFFSFHQVYFSLFSFRRIFLLSFLLLLLPFLLFACVLFSLLTFCPFL | 41900 |
| MIFFLPLVFTSFFFIFFYMYYTVWTLHLSFVKSLEACMNPWIWELYGSTFIHL | 60000 |
| MIFIYMIFIYVIFLFLYFYIFFYFLFFIFIIFICCYFIFLYYLFSYFPFFLFY | 43500 |
| MIFMLDANPSYGTLFILLPYLLSLIIPVLITSVLLSDIFFFFISYCMLCLSCC | 52200 |
| MIFMPSCCGFFISMFTTYGTLFSIRGILTYNPFFLCTFLFPFLFHGVPCLFLF | 49700 |
| MIFSLFLSYNPLFYFIYYYLFYFSCFLLLILIAIITIIAILLCILEFHVPKSL | 51600 |
